Key:
6-DMATSSa = target: T1, 6-DMATSSa (Streptomyces ambofaciens, UniProt A3KIV6); assay: LCMS prenylation assay, conversion yield; type: biochemical; settings: 1 mM substrate; 1 mM DMAPP; 5 mM CaCl2; 4 µg protein in 50 µL; pH 7.5; 37 °C; 16 h; C6-prenylation
T1 construct: gene SAM23877_0730; 6-DMATSSa-His6 (C-terminal tag kept), plasmid pJW12, expressed in E. coli, Ni-NTA purified
T1 sequence (A3KIV6 1-375): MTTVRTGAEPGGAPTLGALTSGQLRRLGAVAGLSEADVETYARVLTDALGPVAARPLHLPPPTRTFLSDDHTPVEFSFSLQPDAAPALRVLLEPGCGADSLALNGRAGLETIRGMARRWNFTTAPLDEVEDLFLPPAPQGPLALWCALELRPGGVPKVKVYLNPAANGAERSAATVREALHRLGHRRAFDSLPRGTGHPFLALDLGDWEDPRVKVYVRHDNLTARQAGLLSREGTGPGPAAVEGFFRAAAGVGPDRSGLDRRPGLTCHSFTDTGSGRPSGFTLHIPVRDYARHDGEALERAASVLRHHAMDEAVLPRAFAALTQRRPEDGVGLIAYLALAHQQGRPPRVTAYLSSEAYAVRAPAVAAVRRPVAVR

7-DMATS = target: T2, 7-DMATS (Aspergillus fumigatus, UniProt Q4WYG3); assay: LCMS prenylation assay, conversion yield; type: biochemical; settings: 1 mM substrate; 1 mM DMAPP; 5 mM CaCl2; 4 µg protein in 50 µL; pH 7.5; 37 °C; 16 h; C6- and C7-prenylation
T2 construct: gene etpPT; 7-DMATS-His6 (C-terminal tag kept), plasmid pLW40, expressed in E. coli, Ni-NTA purified
T2 sequence (Q4WYG3 1-472): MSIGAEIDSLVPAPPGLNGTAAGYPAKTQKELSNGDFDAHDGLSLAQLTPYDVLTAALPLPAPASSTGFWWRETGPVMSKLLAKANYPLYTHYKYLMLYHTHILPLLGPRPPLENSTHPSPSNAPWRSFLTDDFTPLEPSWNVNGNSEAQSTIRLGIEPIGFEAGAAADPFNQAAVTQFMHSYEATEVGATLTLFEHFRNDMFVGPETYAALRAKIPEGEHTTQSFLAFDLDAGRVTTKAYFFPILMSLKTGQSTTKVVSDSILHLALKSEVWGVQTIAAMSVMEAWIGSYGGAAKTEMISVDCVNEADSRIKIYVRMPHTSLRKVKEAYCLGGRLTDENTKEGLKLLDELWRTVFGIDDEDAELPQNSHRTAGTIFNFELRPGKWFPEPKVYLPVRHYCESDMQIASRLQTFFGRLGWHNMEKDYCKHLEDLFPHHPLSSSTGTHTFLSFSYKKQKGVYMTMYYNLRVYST

[1] = substrate: CC(C)=CCOP(=O)(O)OP(=O)(O)O; assay: HPLC prenylation assay, Michaelis-Menten fit; type: biochemical, Aspergillus ruber; settings: 1 mM C4-prenylated cyclo-L-Trp-L-Pro (3), 5 mM CaCl2, pH 7.5, 37 °C, 30 min
Text: (§1) HPLC prenylation assay, Michaelis-Menten fit on EchPT1

[2] = substrate: CC(C)=CCc1ccc2[nH]cc(C[C@@H]3NC(=O)[C@@H]4CCCN4C3=O)c2c1; assay: HPLC prenylation assay, Michaelis-Menten fit; type: biochemical, Aspergillus ruber; settings: 1 mM DMAPP, pH 7.5, 37 °C, 35 min
Text: as §1

[3] = substrate: CC(C)=CCc1ccc2c(C[C@@H]3NC(=O)[C@@H]4CCCN4C3=O)c[nH]c2c1; assay: HPLC prenylation assay, Michaelis-Menten fit; type: biochemical, Aspergillus ruber; settings: 1 mM DMAPP, pH 7.5, 37 °C, 30 min, N1-prenylation
Text: as §1

[4] = substrate: CC(C)=CCc1cccc2[nH]cc(C[C@@H]3NC(=O)[C@@H]4CCCN4C3=O)c12; assay: HPLC prenylation assay, Michaelis-Menten fit; type: biochemical, Aspergillus ruber; settings: 1 mM DMAPP, pH 7.5, 37 °C, 30 min
Text: as §1

In the case of `O=C1N[C@@H](Cc2c[nH]c3ccccc23)C(=O)N2CCC[C@@H]12` [compound 1, cyclo-L-Trp-L-Pro], the conversion yield (6-DMATSSa) is reported as 29.9 ± 0.6% and the conversion yield (7-DMATS) is reported as 11.6 ± 1.4%.

B1: EchPT1 (Aspergillus ruber) (protein)
chain: MPSEVLTSYYDYPTHDQEAWWRDTGPLFGRFLKGAGYDVHTQYQYLVFFIKNILPSLGPYPARWRSTITPTGLPIEYSLNFQLNSRPLLRIGFEPLSRFSGTPQDPYNKIAAADLLNQLSKLQLHEFDTQLFNHFTNEFELSKSESESLQKQGGINGKSTVRSQTAFGFDLKGGRVAVKGYAFAGLKNRATGTPVGQLISNSIRNLEPQMHCWDSFSILNSYMEESDGWNEYSFVSWDCVDIERSRLKLYGVHNAVTWDKVKEMWTLGGRIENNATIKTGLELLQHMWSLLQINEGDRDYKGGFAADNGGKTLPIIWNYELNKGSPHPAPKFYFPVHGENDLQVSKSISEFFTHLGWQDHARQYPHLLRQIYPNQNISQTERLQAWISFAYNERTGPYLSVYYYSAERPPWGSDQVK
notes: His6-EchPT1 (N-terminal tag kept), plasmid pVW90, expressed in E. coli, Ni-NTA purified
Work on B1 yielded a Km [1] of 100 ± 10 µM, a kcat [1] of 0.25 ± 0.02 s⁻¹ and a kcat/Km [1] of 2500 M⁻¹ s⁻¹. The Km [2] was 80 ± 20 µM, the kcat [2] was 0.03 ± 0.004 s⁻¹ and the kcat/Km [2] was 375 M⁻¹ s⁻¹. The Km [3] was 50 ± 7 µM, the kcat [3] was 0.007 ± 0.0004 s⁻¹ and the kcat/Km [3] was 140 M⁻¹ s⁻¹. The Km [4] was 60 ± 10 µM, the kcat [4] was 0.21 ± 0.02 s⁻¹ and the kcat/Km [4] was 3500 M⁻¹ s⁻¹.

— paper PMC9750918, “Diprenylated cyclodipeptide production by changing the prenylation sequence of the nature’s synthetic machinery” (Applied Microbiology and Biotechnology, 2022)
